# Reference: patent publication US20110182911A1 (published 2011)
# B1: recombinant mouse Noggin (other, UniProt P97466 28-232, looked up)
# chain: QHYLHIRPAPSDNLPLVDLIEHPDPIFDPKEKDLNETLLRSLLGGHYDPGFMATSPPEDRPGGGGGPAGGAEDLAELDQLLRQRPSGAMPSEIKGLEFSEGLAQGKKQRLSKKLRRKLQMWLWSQTFCPVLYAWNDLGSRFWPRYVKVGSCFSKRSCSVPEGMVCKPSKSVHLTVLRWRCQRRGGQRCGWIPIQYPIISECKCSC
# Columns and labels:
# [1] = target: recombinant human BMP-4 (human) (UniProt P12644); experiment: cell-based or functional assay
# recombinant human BMP-2 = recombinant human BMP-2 (human, UniProt P12643 283-396); experiment: cell-based or functional assay
# Sequence of recombinant human BMP-2 (P12643 283-396 limits assumed): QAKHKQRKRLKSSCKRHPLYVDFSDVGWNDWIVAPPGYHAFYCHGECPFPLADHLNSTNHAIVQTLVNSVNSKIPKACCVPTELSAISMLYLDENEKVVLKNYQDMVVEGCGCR
# Sequence of recombinant human BMP-4 (human) (P12644 293-408 limits assumed): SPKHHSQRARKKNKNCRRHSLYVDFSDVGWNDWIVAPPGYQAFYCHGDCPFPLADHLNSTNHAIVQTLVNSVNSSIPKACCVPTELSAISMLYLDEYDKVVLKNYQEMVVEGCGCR
Molecule,alkaline phosphatase (ALP) activity in C2C12 cells; molar ratio of antagonist to BMP at which the BMP-induced increase is completely inhibited (molar ratio (bAHSG:rhBMP-4)) [1],alkaline phosphatase (ALP) activity in C2C12 cells; molar ratio of antagonist to BMP at which the BMP-induced increase is completely inhibited (molar ratio (fetuin:rhBMP-4)) [1],alkaline phosphatase (ALP) activity in C2C12 cells; molar ratio of antagonist to BMP at which the BMP-induced increase is completely inhibited (recombinant human BMP-2)
bovine fetuin (from UniProt P12763 19-359),> 56800,> 55000,
B1,,,1.1 molar ratio (rmNGN:rhBMP-2)
